Assay results as given in the supplement of paper PMC10065799, “High-throughput profiling of sequence recognition by tyrosine kinases and SH2 domains using bacterial peptide display” (eLife, 2023).

Columns and labels:
c-Src SH2 = test: SH2 binding enrichment of the phosphorylated peptide, bacterial display (enrichment ratio); higher = better substrate or ligand; peptides without Tyr show the background
SHP2-C SH2 = test: as above
Grb2 SH2 = Grb2 SH2 (UniProt P62993); test: as above
FGFR1 = FGFR1 (UniProt P11362); test: phosphorylation enrichment, bacterial display (enrichment ratio); higher = better substrate or ligand; peptides without Tyr show the background
Sequence of FGFR1 (P11362 whole entry, looked up): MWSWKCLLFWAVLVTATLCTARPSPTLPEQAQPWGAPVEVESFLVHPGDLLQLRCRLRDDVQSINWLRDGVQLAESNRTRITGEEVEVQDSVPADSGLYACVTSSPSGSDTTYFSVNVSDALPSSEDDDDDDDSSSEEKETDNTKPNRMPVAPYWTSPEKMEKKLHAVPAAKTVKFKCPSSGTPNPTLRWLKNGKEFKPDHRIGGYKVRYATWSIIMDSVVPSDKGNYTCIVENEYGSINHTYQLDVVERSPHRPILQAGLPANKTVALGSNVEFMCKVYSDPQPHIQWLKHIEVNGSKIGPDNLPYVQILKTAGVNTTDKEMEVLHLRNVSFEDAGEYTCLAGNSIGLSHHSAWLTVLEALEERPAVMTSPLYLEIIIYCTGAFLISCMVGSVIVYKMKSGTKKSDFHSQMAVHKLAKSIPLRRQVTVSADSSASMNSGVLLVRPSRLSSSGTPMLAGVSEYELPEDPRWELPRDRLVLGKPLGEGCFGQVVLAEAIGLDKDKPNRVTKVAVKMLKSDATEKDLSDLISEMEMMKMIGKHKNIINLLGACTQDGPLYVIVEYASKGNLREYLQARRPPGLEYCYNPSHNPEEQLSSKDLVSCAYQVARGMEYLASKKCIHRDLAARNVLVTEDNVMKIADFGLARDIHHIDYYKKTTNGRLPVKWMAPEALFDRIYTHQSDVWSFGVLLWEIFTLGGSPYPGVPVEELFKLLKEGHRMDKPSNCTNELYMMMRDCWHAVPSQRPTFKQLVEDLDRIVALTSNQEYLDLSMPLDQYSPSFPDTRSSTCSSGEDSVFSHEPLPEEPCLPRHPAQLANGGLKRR

Fer (mouse) = test: as above
c-Abl (mouse) = test: as above
Fyn = Fyn (UniProt P06241); test: as above
Jak2 = Jak2 (UniProt O60674); test: as above
MERTK = MERTK (UniProt Q12866); test: as above
Sequence of MERTK (Q12866 whole entry, looked up): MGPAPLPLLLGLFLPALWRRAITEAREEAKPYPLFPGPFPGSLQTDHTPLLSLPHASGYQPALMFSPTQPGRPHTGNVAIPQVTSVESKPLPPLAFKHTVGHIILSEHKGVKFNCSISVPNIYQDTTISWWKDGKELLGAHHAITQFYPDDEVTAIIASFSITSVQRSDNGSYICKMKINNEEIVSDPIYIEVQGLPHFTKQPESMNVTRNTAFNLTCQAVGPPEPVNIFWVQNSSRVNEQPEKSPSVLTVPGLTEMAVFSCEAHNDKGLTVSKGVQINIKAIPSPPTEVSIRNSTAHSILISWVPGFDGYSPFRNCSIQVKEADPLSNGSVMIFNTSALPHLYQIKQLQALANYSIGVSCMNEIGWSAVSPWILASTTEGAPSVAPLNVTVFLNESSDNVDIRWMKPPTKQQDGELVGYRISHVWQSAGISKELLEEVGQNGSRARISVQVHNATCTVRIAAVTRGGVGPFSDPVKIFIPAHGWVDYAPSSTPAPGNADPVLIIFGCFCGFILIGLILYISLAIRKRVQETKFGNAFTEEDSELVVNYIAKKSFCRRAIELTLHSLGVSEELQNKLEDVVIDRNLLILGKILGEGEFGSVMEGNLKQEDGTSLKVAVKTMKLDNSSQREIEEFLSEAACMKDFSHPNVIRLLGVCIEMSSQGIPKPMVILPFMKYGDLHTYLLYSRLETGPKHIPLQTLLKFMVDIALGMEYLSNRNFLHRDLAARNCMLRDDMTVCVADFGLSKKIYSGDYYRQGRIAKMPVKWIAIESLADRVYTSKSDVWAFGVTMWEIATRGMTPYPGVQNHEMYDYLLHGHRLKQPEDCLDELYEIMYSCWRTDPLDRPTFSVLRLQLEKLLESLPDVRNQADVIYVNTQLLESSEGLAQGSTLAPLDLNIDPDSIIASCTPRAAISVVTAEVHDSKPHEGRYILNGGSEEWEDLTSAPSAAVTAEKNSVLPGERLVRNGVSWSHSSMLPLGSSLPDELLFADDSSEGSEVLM

FGFR3 = FGFR3 (UniProt P22607); test: as above
Sequence of FGFR3 (P22607 whole entry, looked up): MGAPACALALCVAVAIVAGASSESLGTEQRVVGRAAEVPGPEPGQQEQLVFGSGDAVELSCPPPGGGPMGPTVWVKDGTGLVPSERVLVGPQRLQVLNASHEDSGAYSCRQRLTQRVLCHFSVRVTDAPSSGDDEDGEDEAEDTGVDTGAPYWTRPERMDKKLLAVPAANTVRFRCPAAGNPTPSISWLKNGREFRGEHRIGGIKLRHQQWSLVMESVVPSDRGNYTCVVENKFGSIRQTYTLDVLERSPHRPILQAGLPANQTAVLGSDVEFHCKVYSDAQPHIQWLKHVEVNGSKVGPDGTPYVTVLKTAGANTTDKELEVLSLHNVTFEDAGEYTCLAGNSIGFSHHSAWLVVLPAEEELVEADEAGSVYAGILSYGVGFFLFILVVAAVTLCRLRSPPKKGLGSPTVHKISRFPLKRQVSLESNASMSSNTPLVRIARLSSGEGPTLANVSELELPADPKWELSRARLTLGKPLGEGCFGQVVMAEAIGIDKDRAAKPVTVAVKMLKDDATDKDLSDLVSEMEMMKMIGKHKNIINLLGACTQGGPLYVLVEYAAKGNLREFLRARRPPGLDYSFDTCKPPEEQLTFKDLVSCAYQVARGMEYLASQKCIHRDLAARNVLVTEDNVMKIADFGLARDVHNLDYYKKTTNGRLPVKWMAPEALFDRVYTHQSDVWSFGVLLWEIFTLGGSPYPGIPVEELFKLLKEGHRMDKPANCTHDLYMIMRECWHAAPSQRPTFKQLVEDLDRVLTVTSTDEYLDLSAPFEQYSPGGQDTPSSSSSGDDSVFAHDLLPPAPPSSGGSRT

EPHB2 = EPHB2 (UniProt P29323); test: as above
Sequence of EPHB2 (P29323 whole entry, looked up): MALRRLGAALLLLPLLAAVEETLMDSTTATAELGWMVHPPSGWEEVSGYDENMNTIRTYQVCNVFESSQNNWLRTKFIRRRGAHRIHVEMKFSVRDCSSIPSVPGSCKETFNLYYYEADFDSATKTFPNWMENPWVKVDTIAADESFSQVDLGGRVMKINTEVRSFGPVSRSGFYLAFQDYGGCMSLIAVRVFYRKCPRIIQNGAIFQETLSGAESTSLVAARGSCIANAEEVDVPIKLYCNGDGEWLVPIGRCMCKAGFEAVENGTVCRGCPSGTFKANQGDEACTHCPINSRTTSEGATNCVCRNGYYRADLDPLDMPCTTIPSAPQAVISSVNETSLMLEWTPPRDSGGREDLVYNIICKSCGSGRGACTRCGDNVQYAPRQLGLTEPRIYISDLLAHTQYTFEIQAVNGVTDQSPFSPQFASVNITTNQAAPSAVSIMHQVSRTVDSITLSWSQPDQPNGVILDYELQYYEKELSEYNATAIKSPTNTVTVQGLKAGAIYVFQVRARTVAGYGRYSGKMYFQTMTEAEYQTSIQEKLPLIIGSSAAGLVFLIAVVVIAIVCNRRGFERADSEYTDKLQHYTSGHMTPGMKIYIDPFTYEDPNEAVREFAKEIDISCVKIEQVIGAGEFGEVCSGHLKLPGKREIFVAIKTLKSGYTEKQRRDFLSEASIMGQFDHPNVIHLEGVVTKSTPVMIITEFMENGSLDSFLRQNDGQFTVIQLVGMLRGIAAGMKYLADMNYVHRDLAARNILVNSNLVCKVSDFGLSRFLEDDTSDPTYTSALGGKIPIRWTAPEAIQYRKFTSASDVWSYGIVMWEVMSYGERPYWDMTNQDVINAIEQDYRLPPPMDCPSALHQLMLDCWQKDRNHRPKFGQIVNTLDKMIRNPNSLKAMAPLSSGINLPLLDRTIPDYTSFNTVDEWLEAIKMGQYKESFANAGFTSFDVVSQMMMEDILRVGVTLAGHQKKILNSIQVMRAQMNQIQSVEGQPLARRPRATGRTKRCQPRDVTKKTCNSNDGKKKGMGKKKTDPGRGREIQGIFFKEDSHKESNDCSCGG

Fes = Fes (UniProt P07332); test: as above
Sequence of Fes (P07332 whole entry, looked up): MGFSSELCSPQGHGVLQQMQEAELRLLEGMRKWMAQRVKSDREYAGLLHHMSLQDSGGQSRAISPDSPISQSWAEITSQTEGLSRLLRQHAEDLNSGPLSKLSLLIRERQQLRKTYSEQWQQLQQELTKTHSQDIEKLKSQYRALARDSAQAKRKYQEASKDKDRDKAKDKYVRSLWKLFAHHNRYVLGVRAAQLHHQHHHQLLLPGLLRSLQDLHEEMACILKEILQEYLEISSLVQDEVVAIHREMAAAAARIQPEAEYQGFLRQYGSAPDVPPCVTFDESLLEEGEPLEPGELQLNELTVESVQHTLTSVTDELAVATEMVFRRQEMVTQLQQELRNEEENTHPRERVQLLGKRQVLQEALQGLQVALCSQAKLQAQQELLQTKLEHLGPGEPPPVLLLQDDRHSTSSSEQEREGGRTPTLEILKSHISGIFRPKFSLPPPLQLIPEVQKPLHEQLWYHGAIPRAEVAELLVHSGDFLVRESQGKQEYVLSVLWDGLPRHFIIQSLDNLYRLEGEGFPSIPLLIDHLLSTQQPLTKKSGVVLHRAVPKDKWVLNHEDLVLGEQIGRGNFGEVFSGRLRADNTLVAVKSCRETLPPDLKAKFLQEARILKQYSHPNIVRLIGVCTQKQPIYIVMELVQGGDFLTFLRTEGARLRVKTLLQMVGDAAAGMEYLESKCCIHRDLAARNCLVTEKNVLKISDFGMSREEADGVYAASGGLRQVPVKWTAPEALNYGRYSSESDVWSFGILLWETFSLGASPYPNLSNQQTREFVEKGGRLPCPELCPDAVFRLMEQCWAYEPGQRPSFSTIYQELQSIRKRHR

c-Src = test: as above
AncSZ = test: as above
EPHB1 = EPHB1 (UniProt P54762); test: as above
Hck = Hck (UniProt P08631); test: as above
Sequence of Hck (P08631 whole entry, looked up, the tested form may be a part): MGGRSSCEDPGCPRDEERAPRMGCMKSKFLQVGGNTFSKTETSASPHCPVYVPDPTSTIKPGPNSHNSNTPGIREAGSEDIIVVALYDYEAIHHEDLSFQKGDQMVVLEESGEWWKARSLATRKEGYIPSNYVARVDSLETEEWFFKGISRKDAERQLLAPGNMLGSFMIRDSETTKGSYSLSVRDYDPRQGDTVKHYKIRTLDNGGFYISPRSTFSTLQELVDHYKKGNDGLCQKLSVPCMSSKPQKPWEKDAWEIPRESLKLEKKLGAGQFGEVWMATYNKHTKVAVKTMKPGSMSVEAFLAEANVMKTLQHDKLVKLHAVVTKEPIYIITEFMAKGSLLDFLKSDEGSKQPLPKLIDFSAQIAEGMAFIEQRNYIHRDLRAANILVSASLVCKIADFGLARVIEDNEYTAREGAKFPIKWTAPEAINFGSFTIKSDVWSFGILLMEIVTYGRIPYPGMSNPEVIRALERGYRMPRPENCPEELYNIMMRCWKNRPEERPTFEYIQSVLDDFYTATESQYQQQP
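For SH2 binding enrichment of the phosphorylated peptide, bacterial display in this document: peptide library displayed on the E. coli surface as eCPX fusions, selected cells deep-sequenced, score is each peptide's frequency after selection divided by its frequency in the input.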
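For phosphorylation enrichment, bacterial display in this document: 11-residue human phosphosite peptides and single-mutation variants displayed on the E. coli surface, counted by deep sequencing, each peptide's frequency after selection divided by its frequency in the unselected input library; frequency after pTyr selection over input frequency; kinase dosed for 20-30% of maximal phosphorylation in three min.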

| Sequence | SH2 binding enrichment (c-Src SH2) | SH2 binding enrichment (SHP2-C SH2) | SH2 binding enrichment (Grb2 SH2) | phosphorylation enrichment (FGFR1) | phosphorylation enrichment (Fer (mouse)) | phosphorylation enrichment (c-Abl (mouse)) | phosphorylation enrichment (Fyn) | phosphorylation enrichment (Jak2) | phosphorylation enrichment (MERTK) | phosphorylation enrichment (FGFR3) | phosphorylation enrichment (EPHB2) | phosphorylation enrichment (Fes) | phosphorylation enrichment (c-Src) | phosphorylation enrichment (AncSZ) | phosphorylation enrichment (EPHB1) | phosphorylation enrichment (Hck) |
| --- | --- | --- | --- | --- | --- | --- | --- | --- | --- | --- | --- | --- | --- | --- | --- | --- |
| ACLSLYGGFVE [MVD_Y164_R161L] | 0.464 | 0.661 | 0.834 | 0.681 | 0.817 | 1.46 | 5.43 | 1.92 | 0.607 | 1.31 | 1.13 | 2.02 | 4.75 | 1.67 | 1.21 | 3.83 |
| SGPRRYTIAAL [TTR_Y125] | 0.533 | 0.572 | 0.867 | 0.456 | 0.383 | 0.637 | 0.482 | 0.639 | 0.428 | 0.419 | 0.53 | 0.579 | 0.498 | 0.605 | 0.444 | 0.375 |
| EKSREYHRLYE [PIK3R1_Y463_D464H] | 6.12 | 0.589 | 0.647 | 0.455 | 0.432 | 0.52 | 0.498 | 0.637 | 0.525 | 0.466 | 0.435 | 0.616 | 0.519 | 0.538 | 0.428 | 0.539 |
| CTTIHYNFMCS [TP53_Y234_N239S_YF] | 2.25 | 1.96 | 1.79 | 0.572 | 0.495 | 0.548 | 0.502 | 0.823 | 0.5 | 0.799 | 0.507 | 0.902 | 0.571 | 0.846 | 0.634 | 0.603 |
| LKGQVYILGRE [ASS1_Y359] | 0.31 | 0.444 | 0.836 | 0.406 | 0.756 | 1.47 | 0.679 | 1.17 | 0.56 | 1.07 | 0.949 | 1.26 | 0.438 | 1.09 | 0.522 | 0.369 |
| KRAIGHYSATS [FAM120A_Y327_Y327H] | 0.778 | 0.564 | 1.12 | 0.319 | 0.356 | 0.474 | 0.346 | 0.439 | 0.355 | 0.423 | 0.286 | 0.498 | 0.434 | 0.459 | 0.305 | 0.312 |
| DVLEFCNSKKT [PAK1_Y131_Y131C] | 0.403 | 0.693 | 1 | 0.428 | 0.436 | 0.532 | 0.423 | 0.806 | 0.433 | 0.581 | 0.483 | 0.861 | 0.535 | 0.83 | 0.459 | 0.401 |
| GFILMYDITNE [RAB3C_Y110] | 0.674 | 0.962 | 1.05 | 0.49 | 0.692 | 0.8 | 0.526 | 1.38 | 0.678 | 0.975 | 1.6 | 1.66 | 0.559 | 1.33 | 1.06 | 0.633 |
| SKNSKYNAEST [PSEN1_Y315] | 0.489 | 0.595 | 0.759 | 0.339 | 0.396 | 0.52 | 0.363 | 0.673 | 0.35 | 0.366 | 0.426 | 0.609 | 0.425 | 0.482 | 0.309 | 0.351 |

Now from value to sequence, other results behind:

| SH2 binding enrichment (c-Src SH2) | SH2 binding enrichment (SHP2-C SH2) | SH2 binding enrichment (Grb2 SH2) | Sequence | phosphorylation enrichment (FGFR1) | phosphorylation enrichment (Fer (mouse)) | phosphorylation enrichment (c-Abl (mouse)) | phosphorylation enrichment (Fyn) | phosphorylation enrichment (Jak2) | phosphorylation enrichment (MERTK) | phosphorylation enrichment (FGFR3) | phosphorylation enrichment (EPHB2) | phosphorylation enrichment (Fes) | phosphorylation enrichment (c-Src) | phosphorylation enrichment (AncSZ) | phosphorylation enrichment (EPHB1) | phosphorylation enrichment (Hck) |
| --- | --- | --- | --- | --- | --- | --- | --- | --- | --- | --- | --- | --- | --- | --- | --- | --- |
| 0.696 | 0.768 | 1.09 | HAVEDYQAIVD [CCT7_Y263_T259A] | 0.864 | 0.653 | 1.19 | 0.792 | 1.25 | 3.12 | 1.05 | 1.03 | 1.47 | 0.942 | 1.54 | 0.73 | 0.714 |
| 0.83 | 0.767 | 1.4 | KDAGDYKCKAK [LRIT3_Y326] | 0.448 | 0.312 | 0.654 | 0.386 | 0.579 | 0.332 | 0.517 | 0.312 | 0.618 | 0.384 | 0.542 | 0.408 | 0.55 |
| 0.383 | 0.59 | 0.73 | EEVKAYLDFGE [CHAC2_Y78_R82G] | 0.473 | 0.558 | 0.944 | 0.448 | 1.62 | 0.422 | 0.942 | 0.535 | 1.32 | 0.574 | 1.3 | 0.719 | 0.564 |
| 0.481 | 0.788 | 1.02 | LYNQDYPIHSV [GATM_Y227] | 2.26 | 0.732 | 0.86 | 1.31 | 0.984 | 0.771 | 1.44 | 1.03 | 1.23 | 0.901 | 1.17 | 0.866 | 0.966 |
| 0.837 | 0.492 | 0.88 | IIEDPYYGNDS [ACP1_Y132] | 0.851 | 0.632 | 0.849 | 0.958 | 1.33 | 0.522 | 0.869 | 0.623 | 1.22 | 2.73 | 1.46 | 0.561 | 0.918 |
| 0.414 | 0.6 | 0.746 | ENELTYFCFKK [CD59_Y86_C89Y_YF] | 1.06 | 0.541 | 3.38 | 4.33 | 2.43 | 1.16 | 1.29 | 0.667 | 1.57 | 4.58 | 1.71 | 0.796 | 3.63 |
| 0.634 | 0.698 | 0.956 | LERYIYNREEF [HLA-DPB1_Y59] | 0.564 | 0.587 | 0.757 | 1.26 | 0.874 | 0.629 | 1.18 | 1.22 | 1.24 | 2.63 | 1.05 | 0.756 | 1.56 |
